In patent publication US20240247080A1, “GLP1/GIP/NPY2 RECEPTOR TRIPLE AGONISTS” (Boehringer Ingelheim International GmbH, priority 2022, published 2024):
Starred links: 1 amine or outer side, 2 acyl side, 3 side chain; linkers in the order of their positions; H or OH if unused. Non-standard residues stand in square brackets, D forms with d. Groups on a side chain read outwards from the residue. No end group written: not given here. *: point of attachment. C20 diacid = O=C(O)CCCCCCCCCCCCCCCCCCC(=O)*; C18 diacid = O=C(O)CCCCCCCCCCCCCCCCC(=O)*; γGlu = O=C(O)[C@H](CCC(=O)[*:2])N[*:1]; AEEA = NCCOCCOCC(=O)O; Aib = CC(C)(N)C(=O)O

T1: human GIP receptor (human, UniProt P48546 22-466)
T1 sequence (looked up): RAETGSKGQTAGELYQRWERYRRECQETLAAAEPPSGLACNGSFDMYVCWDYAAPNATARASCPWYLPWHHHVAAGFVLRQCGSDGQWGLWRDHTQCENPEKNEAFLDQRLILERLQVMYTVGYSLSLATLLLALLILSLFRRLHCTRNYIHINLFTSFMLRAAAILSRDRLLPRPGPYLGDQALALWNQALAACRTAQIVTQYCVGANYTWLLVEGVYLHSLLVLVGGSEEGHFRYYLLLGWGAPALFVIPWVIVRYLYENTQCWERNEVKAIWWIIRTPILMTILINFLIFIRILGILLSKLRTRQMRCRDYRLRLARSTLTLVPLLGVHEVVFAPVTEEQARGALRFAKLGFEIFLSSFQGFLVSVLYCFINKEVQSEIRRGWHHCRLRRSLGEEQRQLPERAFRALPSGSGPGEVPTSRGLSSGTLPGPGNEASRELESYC

T2: human neuropeptide Y2 (NPY2) receptor (human, UniProt P49146 1-381)
T2 sequence (looked up): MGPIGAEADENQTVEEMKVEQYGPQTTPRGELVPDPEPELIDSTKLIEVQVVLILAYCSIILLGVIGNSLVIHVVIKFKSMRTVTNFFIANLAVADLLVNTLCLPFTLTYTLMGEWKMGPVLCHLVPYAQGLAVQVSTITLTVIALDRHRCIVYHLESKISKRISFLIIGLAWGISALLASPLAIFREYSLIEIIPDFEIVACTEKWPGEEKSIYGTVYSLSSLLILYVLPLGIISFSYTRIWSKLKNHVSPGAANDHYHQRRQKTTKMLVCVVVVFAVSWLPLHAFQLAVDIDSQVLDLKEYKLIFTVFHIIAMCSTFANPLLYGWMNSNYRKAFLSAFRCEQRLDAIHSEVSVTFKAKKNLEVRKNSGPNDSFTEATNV


Legend:
Test in all cases: cell-based or functional assay
[1] = target: human GLP-1 receptor (human, UniProt P43220 24-463)
[2] = target: T1, human GIP receptor
[3] = target: T2, human neuropeptide Y2 (NPY2) receptor

Binder | EC50, CreLuc assay, 0.5% hP [1] | EC50, CreLuc assay, 100% hP [1] | EC50, CreLuc assay, 0.5% hP [2] | EC50, CreLuc assay, 100% hP [2] | EC50, CreLuc assay, 0.5% hP [3] | EC50, CreLuc assay, 100% hP [3]
Y[Aib]EGTFTSDYSI[Aib]LEKQAQ[Aib]EFVEWLIK([AEEA-AEEA-γGlu-γGlu-γGlu-C18 diacid])GGPESGASLRHYYNWLTRQRY-NH2 (also: TFA salt) [Compound 81] | 0.6 nM | 15.4 nM | 0.27 nM | 1.79 nM | 11.1 nM | 36.4 nM
YXEGTFTSDYSIXLEKQAQXAFVEWLIKGGPSSYVSIRHYYNWLTRQRY (Aib at 2, 13, 20; K28 side chain: C20DA-gGlu-gGlu-gGlu-gGlu-gGlu-gGlu-eLys; C-terminal NH2) [Compound 9] | 0.46 nM | 6.64 nM | 0.21 nM | 2.03 nM | 15.2 nM | 18.9 nM
YXEGTFTSDYSIXLEKQAQXAFVEWLIKGGPSSGQSLRHYYNWLTRQRY (Aib at 2, 13, 20; K28 side chain: C20DA-gGlu-gGlu-gGlu-gGlu-gGlu-gGlu-eLys; C-terminal NH2) [Compound 84] | 0.13 nM | 2.63 nM | 0.23 nM | 1.43 nM | 8.31 nM | 35.2 nM
YXDGTFTSDYSIXLEKQAQXAFVEWLIKGGPSSGASLRHYYNWLTRQRY (Aib at 2, 13, 20; K28 side chain: C20DA-gGlu-gGlu-gGlu-gGlu-gGlu-gGlu-eLys; C-terminal NH2) [Compound 87] | 0.08 nM | 2 nM | 0.58 nM | 5.65 nM | 20.7 nM | 73.4 nM
YXEGTFTSDYSIXLEKQAQXAFVEWLIKGGPSSGASLRHYYNLXTRQRY (Aib at 2, 13, 20, 44; K28 side chain: C20DA-gGlu-gGlu-gGlu-gGlu-gGlu-gGlu-eLys; C-terminal NH2) [Compound 79] | 0.11 nM | 2.09 nM | 0.29 nM | 1.86 nM | 87.6 nM | 265 nM
YXEGTFTSDYSIXLEKQAQXAFVQWLIKGGPSSYVSLRHYYNWLTRQRY (Aib at 2, 13, 20; K28 side chain: C20DA-gGlu-gGlu-gGlu-gGlu-gGlu-gGlu-eLys; C-terminal NH2) [Compound 15] | 0.16 nM | 4.11 nM | 0.32 nM | 2.43 nM | 6.01 nM | 15.4 nM
YXEGTFTSDYSIXLEKQAQXAFVQWLIKGGPRYYASLRHYYNWLTRQRY (Aib at 2, 13, 20; K28 side chain: C20DA-gGlu-gGlu-gGlu-gGlu-gGlu-gGlu-eLys; C-terminal NH2) [Compound 14] | 0.4 nM | 7.13 nM | 0.71 nM | 2.22 nM | 6.85 nM | 28.5 nM
YXEGTFTSDYSIXLEKQAQXAFVQWLIKGGPSEYVSLRHYYNWLTRQRY (Aib at 2, 13, 20; K28 side chain: C20DA-gGlu-gGlu-gGlu-gGlu-gGlu-gGlu-eLys; C-terminal NH2) [Compound 78] | 0.64 nM | 12.2 nM | 0.53 nM | 6.64 nM | 12.9 nM | 24.6 nM
YXEGTFTSDYSIXLEKQAQXAFVEWLIKGGPSSGASLRHYLNWLTRQRY (Aib at 2, 13, 20; K28 side chain: C20DA-gGlu-gGlu-gGlu-gGlu-gGlu-gGlu-eLys; C-terminal NH2) [Compound 86] | 0.25 nM | 2.47 nM | 0.48 nM | 1.61 nM | 23.7 nM | 53.1 nM
YXEGTFTSDYSIXLEKQAQXAFVEWLIKGGPSYYVSLRHYYNWLTRQRY (Aib at 2, 13, 20; K28 side chain: C20DA-gGlu-gGlu-gGlu-gGlu-gGlu-gGlu-eLys; C-terminal NH2) [Compound 80] | 1.6 nM | 16.3 nM | 0.79 nM | 6.76 nM | 12.8 nM | 54.8 nM
YXEGTFTSDYSIXLEKQAQXAFVEWLIKGGPSSGASLRHYYNWLTRQRY (Aib at 2, 13, 20; NMeQ 47; K28 side chain: C20DA-gGlu-gGlu-gGlu-gGlu-gGlu-gGlu-eLys; C-terminal NH2) [Compound 85] | 0.15 nM | 2.75 nM | 0.22 nM | 1.11 nM | 10.3 nM | 34.4 nM
YXEGTFTSDYSIXLEXEAQXKFVEWLIKGGPSSGASLRHYYNWLTRQRY (Aib at 2, 13, 16, 20; K28 side chain: C20DA-gGlu-gGlu-gGlu-gGlu-gGlu-gGlu-eLys; C-terminal NH2) [Compound 16] | 1.48 nM | 30.3 nM | 0.66 nM | 4.53 nM | 28.8 nM | 197 nM
YXEGTFTSDYSIXLEKQAQXAFVEWLIKGGPSSPESXRHYYNWLTRQRY (Aib at 2, 13, 20, 37; K28 side chain: C20DA-gGlu-gGlu-gGlu-gGlu-gGlu-gGlu-eK; C-terminal NH2) [Compound 10] | 0.11 nM | 2.59 nM | 0.07 nM | 1.25 nM | 18.2 nM | 42.2 nM
YXEGTFTSDYSIXLEKQAQXAFVQWLIKGGPESPASLRHYYNWLTRQRY (Aib at 2, 13, 20; K28 side chain: C20DA-gGlu-gGlu-gGlu-gGlu-gGlu; C-terminal NH2) [Compound 11] | 0.11 nM | 6.69 nM | 0.17 nM | 2.54 nM | 10.3 nM | 51.5 nM
YXEGTFTSDYSIXLEKQAQXAFVEWLIKGGPSSGASLRHYLNLXTRQRY (Aib at 2, 13, 20, 44; K28 side chain: C20DA-gGlu-gGlu-gGlu-gGlu-gGlu-gGlu-eLys; C-terminal NH2) [Compound 17] | 0.14 nM | 2.28 nM | 0.43 nM | 2.23 nM | > 100 nM | 450 nM
YXEGTFTSDYSIXLEKQAQXAFVEWLIKGGPSSGASLRHYYNWLTRQRY (Aib at 2, 13, 20; NMeR 48; K28 side chain: C20DA-gGlu-gGlu-gGlu-gGlu-gGlu-gGlu-eLys; C-terminal NH2) [Compound 83] | 0.17 nM | 2.87 nM | 0.13 nM | 1.06 nM | 28.8 nM | 80.6 nM
YXEGTFTSDYSIXLEKQAQXAFVQWLIKGGPESPASLRHYYNWLTRQRY (Aib at 2, 13, 20; K28 side chain: C18DA-gGlu-gGlu-gGlu-gGlu-gGlu; C-terminal NH2) [Compound 12] | 0.11 nM | 4.76 nM | 0.14 nM | 1.8 nM | 11.9 nM | 45.8 nM
Y[Aib]EGTFTSDYSI[Aib]LEKQAQ[Aib]AFVQWLIK([AEEA-AEEA-γGlu-γGlu-γGlu-γGlu-C20 diacid])GGPEEPASLRHYYNWLTRQRY-NH2 (also: TFA salt) [Compound 77] | 0.24 nM | 16.2 nM | 0.32 nM | 2.16 nM | 13.7 nM | 46.3 nM
Y[Aib]EGTFTSDYSI[Aib]LEKQAQ[Aib]AFVEWLIKGGPSSGAS[Aib]RHYYNR[Aib]TRQRY-NH2 (not fully specified (residue 28); also: TFA salt) [Compound 13] | 0.05 nM | 0.92 nM | 0.09 nM | 0.77 nM | 9.54 nM | 31.5 nM
